{"source": "patent CN117843802A", "about": "(BEILAI PHARMACEUTICAL CO LTD, dated 2024)", "binders": {"B1": {"name": "Ixekizumab (antibody, human IgG4 S228P, kappa, V domains shown)", "VH": "QVQLVQSGAEVKKPGSSVKVSCKASGYSFTDYHIHWVRQAPGQGLEWMGVINPMYGTTDYNQRFKGRVTITADESTSTAYMELSSLRSEDTAVYYCARYDYFTGTGVYWGQGTLVTVSS", "VL": "DIVMTQTPLSLSVTPGQPASISCRSSRSLVHSRGNTYLHWYLQKPGQSPQLLIYKVSNRFIGVPDRFSGSGSGTDFTLKISRVEAEDVGVYYCSQSTHLPFTFGQGTKLEIKR", "notes": "Made in-house: variable regions cloned into pcDNA3.4-hIgG4 and pcDNA3.4-hIgKc, expressed in 293F cells, purified on Protein A; also called 阳性对照抗体; 阳性抗体"}}, "key": {"[1]": {"biological_target": "T1, Human IL-17A蛋白 (Human, UniProt Q16552 24-155)", "T1 sequence (looked up)": "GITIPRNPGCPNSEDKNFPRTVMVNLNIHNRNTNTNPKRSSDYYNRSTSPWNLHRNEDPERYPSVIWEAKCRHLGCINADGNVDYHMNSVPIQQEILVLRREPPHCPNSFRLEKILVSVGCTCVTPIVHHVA", "test": "cell-based or functional assay"}, "[2]": {"biological_target": "T2, Human IL-17A重组蛋白 (IL-17A-His) (Human, UniProt Q16552 24-155, biotinylated (Biotin-IL-17A-His) in the ELISA of paragraph 259; site not stated)", "T2 construct": "Recombinant antigen expressed in E. coli BL21 from pET28a, purified on a nickel column; also called IL-17A抗原蛋白; IL-17抗原", "T2 sequence": "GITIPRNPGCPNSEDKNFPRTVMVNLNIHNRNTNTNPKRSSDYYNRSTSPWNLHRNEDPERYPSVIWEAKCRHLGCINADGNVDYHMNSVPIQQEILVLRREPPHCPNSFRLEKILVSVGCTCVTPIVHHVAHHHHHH", "test": "ELISA: antibody coated at 2 ug/mL, Biotin-IL-17A-His titrated from 10 ug/mL (5-fold, 7 points), HRP-Streptavidin"}}}
{"binder": "B1", "values": [{"measurement": "IC50, luciferase activity of 293F-IL-17RA-IL-17Rc-ACT1-NFκB-Luc reporter cells", "setting": "[1]", "value": 1.36, "unit": "µg/mL"}, {"measurement": "EC50", "setting": "[2]", "value": 10.1, "unit": "µg/mL"}]}
